Experimental data published in patent US20230365662A1.
Where “and” joins values, the source holds several entries; their conditions need not be identical. Equal values may be shown once.

B1: KB001 mouse Fab VL S51G (Fab, V domains shown)
VH: EVQLKQSGPGLVAPSQSLSITCTVSGFSLSIYSVHWVRQPPGKGLEWLGMIWGGGSSDYNSALKSRLSISKDNSKSQVFLKMNSLQTDDTAMYYCARNGNFYAMDYWGQGTSVTVSS
VL: QIVLTQSPAIMSASLGERVTMTCTASSSVSSSFLHWYQQKPGSSPQLWIYGTSNLASGVPARFSGSGSGTSYSLTISSMEAEDAATYYCHQYHHSPYIYTFGGGTKLEIK
B2: KB001 mouse Fab VL T52A (Fab, V domains shown)
VH: EVQLKQSGPGLVAPSQSLSITCTVSGFSLSIYSVHWVRQPPGKGLEWLGMIWGGGSSDYNSALKSRLSISKDNSKSQVFLKMNSLQTDDTAMYYCARNGNFYAMDYWGQGTSVTVSS
VL: QIVLTQSPAIMSASLGERVTMTCTASSSVSSSFLHWYQQKPGSSPQLWIYSASNLASGVPARFSGSGSGTSYSLTISSMEAEDAATYYCHQYHHSPYIYTFGGGTKLEIK
B3: KB001 mouse Fab VL T52S (Fab, V domains shown)
VH: EVQLKQSGPGLVAPSQSLSITCTVSGFSLSIYSVHWVRQPPGKGLEWLGMIWGGGSSDYNSALKSRLSISKDNSKSQVFLKMNSLQTDDTAMYYCARNGNFYAMDYWGQGTSVTVSS
VL: QIVLTQSPAIMSASLGERVTMTCTASSSVSSSFLHWYQQKPGSSPQLWIYSSSNLASGVPARFSGSGSGTSYSLTISSMEAEDAATYYCHQYHHSPYIYTFGGGTKLEIK
B4: KB001 mouse Fab VL S53N (Fab, V domains shown)
VH: EVQLKQSGPGLVAPSQSLSITCTVSGFSLSIYSVHWVRQPPGKGLEWLGMIWGGGSSDYNSALKSRLSISKDNSKSQVFLKMNSLQTDDTAMYYCARNGNFYAMDYWGQGTSVTVSS
VL: QIVLTQSPAIMSASLGERVTMTCTASSSVSSSFLHWYQQKPGSSPQLWIYSTNNLASGVPARFSGSGSGTSYSLTISSMEAEDAATYYCHQYHHSPYIYTFGGGTKLEIK
B5: KB001 mouse Fab VL S53H (Fab, V domains shown)
VH: EVQLKQSGPGLVAPSQSLSITCTVSGFSLSIYSVHWVRQPPGKGLEWLGMIWGGGSSDYNSALKSRLSISKDNSKSQVFLKMNSLQTDDTAMYYCARNGNFYAMDYWGQGTSVTVSS
VL: QIVLTQSPAIMSASLGERVTMTCTASSSVSSSFLHWYQQKPGSSPQLWIYSTHNLASGVPARFSGSGSGTSYSLTISSMEAEDAATYYCHQYHHSPYIYTFGGGTKLEIK
B6: KB001 mouse Fab VL S53Q (Fab, V domains shown)
VH: EVQLKQSGPGLVAPSQSLSITCTVSGFSLSIYSVHWVRQPPGKGLEWLGMIWGGGSSDYNSALKSRLSISKDNSKSQVFLKMNSLQTDDTAMYYCARNGNFYAMDYWGQGTSVTVSS
VL: QIVLTQSPAIMSASLGERVTMTCTASSSVSSSFLHWYQQKPGSSPQLWIYSTQNLASGVPARFSGSGSGTSYSLTISSMEAEDAATYYCHQYHHSPYIYTFGGGTKLEIK
B7: KB001 mouse Fab VL S53K (Fab, V domains shown)
VH: EVQLKQSGPGLVAPSQSLSITCTVSGFSLSIYSVHWVRQPPGKGLEWLGMIWGGGSSDYNSALKSRLSISKDNSKSQVFLKMNSLQTDDTAMYYCARNGNFYAMDYWGQGTSVTVSS
VL: QIVLTQSPAIMSASLGERVTMTCTASSSVSSSFLHWYQQKPGSSPQLWIYSTKNLASGVPARFSGSGSGTSYSLTISSMEAEDAATYYCHQYHHSPYIYTFGGGTKLEIK
B8: KB001 mouse Fab VL N54Q (Fab, V domains shown)
VH: EVQLKQSGPGLVAPSQSLSITCTVSGFSLSIYSVHWVRQPPGKGLEWLGMIWGGGSSDYNSALKSRLSISKDNSKSQVFLKMNSLQTDDTAMYYCARNGNFYAMDYWGQGTSVTVSS
VL: QIVLTQSPAIMSASLGERVTMTCTASSSVSSSFLHWYQQKPGSSPQLWIYSTSQLASGVPARFSGSGSGTSYSLTISSMEAEDAATYYCHQYHHSPYIYTFGGGTKLEIK
B9: KB001 mouse Fab VL N54R (Fab, V domains shown)
VH: EVQLKQSGPGLVAPSQSLSITCTVSGFSLSIYSVHWVRQPPGKGLEWLGMIWGGGSSDYNSALKSRLSISKDNSKSQVFLKMNSLQTDDTAMYYCARNGNFYAMDYWGQGTSVTVSS
VL: QIVLTQSPAIMSASLGERVTMTCTASSSVSSSFLHWYQQKPGSSPQLWIYSTSRLASGVPARFSGSGSGTSYSLTISSMEAEDAATYYCHQYHHSPYIYTFGGGTKLEIK
B10: KB001 mouse Fab VL N54S (Fab, V domains shown)
VH: EVQLKQSGPGLVAPSQSLSITCTVSGFSLSIYSVHWVRQPPGKGLEWLGMIWGGGSSDYNSALKSRLSISKDNSKSQVFLKMNSLQTDDTAMYYCARNGNFYAMDYWGQGTSVTVSS
VL: QIVLTQSPAIMSASLGERVTMTCTASSSVSSSFLHWYQQKPGSSPQLWIYSTSSLASGVPARFSGSGSGTSYSLTISSMEAEDAATYYCHQYHHSPYIYTFGGGTKLEIK
B11: KB001 mouse Fab VL L55N (Fab, V domains shown)
VH: EVQLKQSGPGLVAPSQSLSITCTVSGFSLSIYSVHWVRQPPGKGLEWLGMIWGGGSSDYNSALKSRLSISKDNSKSQVFLKMNSLQTDDTAMYYCARNGNFYAMDYWGQGTSVTVSS
VL: QIVLTQSPAIMSASLGERVTMTCTASSSVSSSFLHWYQQKPGSSPQLWIYSTSNNASGVPARFSGSGSGTSYSLTISSMEAEDAATYYCHQYHHSPYIYTFGGGTKLEIK
B12: KB001 mouse Fab VL L55P (Fab, V domains shown)
VH: EVQLKQSGPGLVAPSQSLSITCTVSGFSLSIYSVHWVRQPPGKGLEWLGMIWGGGSSDYNSALKSRLSISKDNSKSQVFLKMNSLQTDDTAMYYCARNGNFYAMDYWGQGTSVTVSS
VL: QIVLTQSPAIMSASLGERVTMTCTASSSVSSSFLHWYQQKPGSSPQLWIYSTSNPASGVPARFSGSGSGTSYSLTISSMEAEDAATYYCHQYHHSPYIYTFGGGTKLEIK
B13: KB001 mouse Fab VL S57N (Fab, V domains shown)
VH: EVQLKQSGPGLVAPSQSLSITCTVSGFSLSIYSVHWVRQPPGKGLEWLGMIWGGGSSDYNSALKSRLSISKDNSKSQVFLKMNSLQTDDTAMYYCARNGNFYAMDYWGQGTSVTVSS
VL: QIVLTQSPAIMSASLGERVTMTCTASSSVSSSFLHWYQQKPGSSPQLWIYSTSNLANGVPARFSGSGSGTSYSLTISSMEAEDAATYYCHQYHHSPYIYTFGGGTKLEIK
B14: KB001 mouse Fab VL S57R (Fab, V domains shown)
VH: EVQLKQSGPGLVAPSQSLSITCTVSGFSLSIYSVHWVRQPPGKGLEWLGMIWGGGSSDYNSALKSRLSISKDNSKSQVFLKMNSLQTDDTAMYYCARNGNFYAMDYWGQGTSVTVSS
VL: QIVLTQSPAIMSASLGERVTMTCTASSSVSSSFLHWYQQKPGSSPQLWIYSTSNLARGVPARFSGSGSGTSYSLTISSMEAEDAATYYCHQYHHSPYIYTFGGGTKLEIK
B15: KB001 mouse Fab VL S57T (Fab, V domains shown)
VH: EVQLKQSGPGLVAPSQSLSITCTVSGFSLSIYSVHWVRQPPGKGLEWLGMIWGGGSSDYNSALKSRLSISKDNSKSQVFLKMNSLQTDDTAMYYCARNGNFYAMDYWGQGTSVTVSS
VL: QIVLTQSPAIMSASLGERVTMTCTASSSVSSSFLHWYQQKPGSSPQLWIYSTSNLATGVPARFSGSGSGTSYSLTISSMEAEDAATYYCHQYHHSPYIYTFGGGTKLEIK
B16: KB001 mouse Fab VL S57E (Fab, V domains shown)
VH: EVQLKQSGPGLVAPSQSLSITCTVSGFSLSIYSVHWVRQPPGKGLEWLGMIWGGGSSDYNSALKSRLSISKDNSKSQVFLKMNSLQTDDTAMYYCARNGNFYAMDYWGQGTSVTVSS
VL: QIVLTQSPAIMSASLGERVTMTCTASSSVSSSFLHWYQQKPGSSPQLWIYSTSNLAEGVPARFSGSGSGTSYSLTISSMEAEDAATYYCHQYHHSPYIYTFGGGTKLEIK
B17: KB001 mouse Fab VL S57P (Fab, V domains shown)
VH: EVQLKQSGPGLVAPSQSLSITCTVSGFSLSIYSVHWVRQPPGKGLEWLGMIWGGGSSDYNSALKSRLSISKDNSKSQVFLKMNSLQTDDTAMYYCARNGNFYAMDYWGQGTSVTVSS
VL: QIVLTQSPAIMSASLGERVTMTCTASSSVSSSFLHWYQQKPGSSPQLWIYSTSNLAPGVPARFSGSGSGTSYSLTISSMEAEDAATYYCHQYHHSPYIYTFGGGTKLEIK
B18: KB001 mouse Fab VL S57Q (Fab, V domains shown)
VH: EVQLKQSGPGLVAPSQSLSITCTVSGFSLSIYSVHWVRQPPGKGLEWLGMIWGGGSSDYNSALKSRLSISKDNSKSQVFLKMNSLQTDDTAMYYCARNGNFYAMDYWGQGTSVTVSS
VL: QIVLTQSPAIMSASLGERVTMTCTASSSVSSSFLHWYQQKPGSSPQLWIYSTSNLAQGVPARFSGSGSGTSYSLTISSMEAEDAATYYCHQYHHSPYIYTFGGGTKLEIK
B19: KB001 mouse Fab VL S57G (Fab, V domains shown)
VH: EVQLKQSGPGLVAPSQSLSITCTVSGFSLSIYSVHWVRQPPGKGLEWLGMIWGGGSSDYNSALKSRLSISKDNSKSQVFLKMNSLQTDDTAMYYCARNGNFYAMDYWGQGTSVTVSS
VL: QIVLTQSPAIMSASLGERVTMTCTASSSVSSSFLHWYQQKPGSSPQLWIYSTSNLAGGVPARFSGSGSGTSYSLTISSMEAEDAATYYCHQYHHSPYIYTFGGGTKLEIK
B20: KB001 mouse Fab VL H90W (Fab, V domains shown)
VH: EVQLKQSGPGLVAPSQSLSITCTVSGFSLSIYSVHWVRQPPGKGLEWLGMIWGGGSSDYNSALKSRLSISKDNSKSQVFLKMNSLQTDDTAMYYCARNGNFYAMDYWGQGTSVTVSS
VL: QIVLTQSPAIMSASLGERVTMTCTASSSVSSSFLHWYQQKPGSSPQLWIYSTSNLASGVPARFSGSGSGTSYSLTISSMEAEDAATYYCWQYHHSPYIYTFGGGTKLEIK

Target: HRgpA-6H (Porphyromonas gingivalis) (UniProt P28784)
Assay: ELISA, FASEBA Fab on coated HRgpA-6H

UniProt P28784, sequence (P28784 228-991): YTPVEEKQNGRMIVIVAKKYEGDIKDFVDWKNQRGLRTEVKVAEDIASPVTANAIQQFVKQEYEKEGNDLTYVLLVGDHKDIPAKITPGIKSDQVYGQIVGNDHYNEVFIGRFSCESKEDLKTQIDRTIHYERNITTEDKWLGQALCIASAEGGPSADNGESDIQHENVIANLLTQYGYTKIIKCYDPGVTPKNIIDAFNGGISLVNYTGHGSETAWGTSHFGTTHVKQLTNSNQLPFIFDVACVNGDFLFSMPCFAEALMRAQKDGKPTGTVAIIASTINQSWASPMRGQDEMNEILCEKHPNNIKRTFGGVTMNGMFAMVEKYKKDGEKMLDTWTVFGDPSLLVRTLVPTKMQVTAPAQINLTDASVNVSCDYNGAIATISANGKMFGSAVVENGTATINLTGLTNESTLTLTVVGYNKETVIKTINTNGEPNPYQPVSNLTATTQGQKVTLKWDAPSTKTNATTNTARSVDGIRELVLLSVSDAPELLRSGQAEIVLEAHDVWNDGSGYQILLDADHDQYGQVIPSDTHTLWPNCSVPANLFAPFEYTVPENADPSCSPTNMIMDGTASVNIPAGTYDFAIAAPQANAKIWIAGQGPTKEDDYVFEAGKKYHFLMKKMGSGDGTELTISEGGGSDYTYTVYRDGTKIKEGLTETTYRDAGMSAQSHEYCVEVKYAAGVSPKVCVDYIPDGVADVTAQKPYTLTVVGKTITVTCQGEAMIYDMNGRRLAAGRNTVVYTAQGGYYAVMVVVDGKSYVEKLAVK

| Binder | OD450nm | Ratio OD(Variant)/OD(WT) |
| --- | --- | --- |
| B1 | 0.915 and 0.777 and 0.851 | 1.05 and 0.888 and 0.973 |
| B2 |  | 1.17 and 1.08 (2×) and 0.993 |
| B3 | 0.833 | 1.06 |
| B4 | 0.838 and 0.707 | 1.06 and 0.898 |
| B5 | 0.827 and 0.777 | 1.05 and 0.987 |
| B6 | 0.835 and 0.751 and 0.726 | 1.06 and 0.954 and 0.922 |
| B7 | 0.841 | 1.07 |
| B8 | 0.868 | 1.11 |
| B9 | 0.876 | 1.12 |
| B10 | 0.835 and 0.732 and 0.776 | 1.07 and 0.934 and 0.99 |
| B11 | 0.816 and 0.815 and 0.777 | 1.04 (2×) and 0.992 |
| B12 | 0.827 and 0.764 and 0.724 | 1.06 and 0.975 and 0.924 |
| B13 | 0.857 | 1.05 |
| B14 | 0.845 and 0.849 | 1.04 |
| B15 | 0.843 | 1.03 |
| B16 | 0.843 | 1.03 |
| B17 | 0.858 | 1.05 |
| B18 | 0.858 and 0.838 | 1.05 and 1.03 |
| B19 | 0.873 and 0.825 | 1.07 and 1.01 |
| B20 | 0.913 | 1.06 |
